This note sets out measurements from publication PMC4820699, “Localisation and protein-protein interactions of the Helicobacter pylori taxis sensor TlpD and their connection to metabolic functions” (Scientific Reports, 2016).

The target in the experiment is T1, purified recombinant H. pylori catalase (KatA) (H. pylori, UniProt P77872 1-505).
T1 construct: Catalase KatA of Helicobacter pylori, recombinant, active, tag-free; source: E. coli, recombinant, tag-free, purified
T1 sequence: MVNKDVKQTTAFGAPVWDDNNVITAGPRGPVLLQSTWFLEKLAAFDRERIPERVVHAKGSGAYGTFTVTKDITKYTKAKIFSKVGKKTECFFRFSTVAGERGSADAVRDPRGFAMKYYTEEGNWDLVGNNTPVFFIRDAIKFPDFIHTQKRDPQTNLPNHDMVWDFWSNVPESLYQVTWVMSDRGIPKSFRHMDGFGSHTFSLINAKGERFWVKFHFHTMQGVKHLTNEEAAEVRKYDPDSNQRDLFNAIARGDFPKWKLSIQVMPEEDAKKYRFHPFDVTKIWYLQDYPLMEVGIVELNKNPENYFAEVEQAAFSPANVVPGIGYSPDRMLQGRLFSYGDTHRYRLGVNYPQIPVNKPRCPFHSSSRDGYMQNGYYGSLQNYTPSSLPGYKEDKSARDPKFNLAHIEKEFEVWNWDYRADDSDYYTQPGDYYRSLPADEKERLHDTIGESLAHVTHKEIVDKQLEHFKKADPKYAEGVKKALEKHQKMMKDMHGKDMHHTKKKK
The experiment in a line: BLI; Octet RED96; inverse setting: ligand KatA (tag-free) coupled to the sensor via free amine groups, analyte TlpD-V5 at 200, 400 and 2,000 nM in assay buffer, association 1,800 sec; two-state parallel binding model. The conditions noted are these: both partners purified.

B1: TlpD-V5 (purified from H. pylori) (natural protein)
chain: not shown
notes: Transducer-like protein / energy taxis sensor TlpD of Helicobacter pylori; tlpD-V5 fusion gene with the potential tlpD promoter region in pHel2; also called TlpD (V5-tagged); native TlpD-V5; not shown: V5, C-terminal, kept
Regarding B1, the “KD (fast on, slow off; two-state parallel model)” value worked out at 275 nM and the “KD (slow on, fast off; two-state parallel model)” value was 2000 nM.
